± gives the standard deviation.

The source of these data is the supplement of paper PMC10567573.

The series can be described thus: protein stability index of a GFP-peptide fusion (GPS, HEK-293T) (PSI 1-6); higher = more stable.
Where [1] appears, read: treatment: DMSO, c terminus: a fixed tail appended.
Where [2] appears, read: treatment: MLN4924 1 uM, 8 h, c terminus: a fixed tail appended.
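Note: 24-mer peptide tiles fused after GFP, lentivirally expressed, FACS-sorted into six equal bins by GFP/DsRed ratio, decoded by Illumina sequencing, PSI is the read-weighted mean bin number.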

As to ICLEMFTKPVVILPCQHNLCRKCA [TRIM63], the protein stability index was 2.2 ± 0.054 under setting [1] and 2.41 ± 0.13 under setting [2].
On the same counts, the results for KCDQPFFWNFKQMWDSKKIGLRQH [WDFY2] are 2.29 ± 0.36 and 2.65 ± 0.42.
TVSIMEPGETRRNSYPRADTGLFS [TRIM29]: the protein stability index runs as follows: under setting [1], 3.81 ± 0.2; under setting [2], 3.64 ± 0.37.
On the same counts, the results for CTLEQDHFKKQTIYRFLKLHPRGK [FEM1C] are 2.43 ± 0.27 and 2.65 ± 0.37.
Sequence VCEQCLQILYESCPKYKFISCPTC [RNF208] displayed a protein stability index under setting [1] of 4.06 ± 0.29 and a protein stability index under setting [2] of 4.09 ± 0.5.
In the case of VDGRHLLRTLSRAKFWPRRRFNFF [DNAAF3], the protein stability index runs as follows: under setting [1], 1.92 ± 0.23; under setting [2], 2.17 ± 0.11.
On the same counts, the results for TEQGFGEDLEDLGAVAPPVSGDLT [NFE2L1] are 5.388 ± 0.027 and 5.26 ± 0.55.
The like results for SKPKTFQAYLDDCHRRYSCAHCRA [YPEL3] were, in that order, 2.41 ± 0.55 and 3.04 ± 0.59.
The like results for RTALEYCKLILSLEPDEDPLCMLL [TCF25] were, in that order, 2.24 ± 0.36 and 2.32 ± 0.3.
With DEQLNEFHCLWDDSFPEGPERLHA [HDAC6], the protein stability index reads like this: under setting [1], 4.55 ± 0.3; under setting [2], 4.46 ± 0.35.
On the same counts, the results for EKKEKEKKKKDKEKEKEKHKVKAE [BRD3] are 5.41 ± 0.22 and 5.53 ± 0.42.
The like results for PFAFVEFEDPRDAEDAVYGRDGYD [SRSF1] were, in that order, 4.76 ± 0.15 and 4.64 ± 0.2.
On the same counts, the results for TSCSLELIGDLIGHSSSVEMFLYF [WDR41] are 3.13 ± 0.88 and 2.4 ± 0.74.
Consider TTEQHVPEVEVQVKRRRTASLSNQ [SNURF], for which the protein stability index by setting is: under setting [1], 5.25 ± 0.27; under setting [2], 5.23 ± 0.17.
The like results for ELARIVLLRHRMNWLGRPSKVLSL [RAB40A] were, in that order, 2.46 ± 0.73 and 2.43 ± 0.43.
On the same counts, the results for MNARGLGSELKDSIPVTELSASGP [POMP] are 4.78 ± 0.34 and 4.62 ± 0.23.
Take LIVGRIAIGVSISLSSIATCVYIA [SLC2A12]: the protein stability index reads like this: under setting [1], 3.09 ± 0.45; under setting [2], 3.01 ± 0.39.
The like results for TLGASSLREERGHPLHPRHRKAVH [C6orf223] were, in that order, 4.54 ± 0.25 and 4.5 ± 0.098.
The like results for LKKAKVQVERMREVNSRCYQPEPF [FBXO34] were, in that order, 2.79 ± 0.61 and 2.84 ± 0.16.
The like results for EGEIATYRHLLEGEDCKLPPQPCA [KRT36] were, in that order, 4.6 ± 0.26 and 4.26 ± 0.24.
On to QYEKYSFRGFPPEDLMPLAAAYGH [P3H4], for which the protein stability index under setting [1] was found to be 3.01 ± 0.4 and the protein stability index under setting [2] was determined as 2.55 ± 0.57.
On the same counts, the results for WVCFIYTIMSLASLLFVVMFIPET [SLC2A12] are 3.06 ± 0.83 and 2.74 ± 0.52.
In the case of TYECRCIGEEKEMWNFGEKYARF [TIA1], the protein stability index runs as follows: (treatment: DMSO, c terminus: native) 2.58 ± 0.59; (treatment: MLN4924 1 uM, 8 h, c terminus: native) 2.93 ± 0.65.
Turning to GVGAYGTVYKARDPHSGHFVALKS [CDK4], the protein stability index turned out to be 2.89 ± 0.12 under setting [1] and 3.05 ± 0.32 under setting [2].
On the same counts, the results for EEWLLVGTKQGHLLLYRIRKDVGC [VPS39] are 3.08 ± 1.3 and 2.48 ± 0.5.
Turning to VNYSDPNDADKAINTLNGLKLQTK [ELAVL3], the protein stability index runs as follows: under setting [1], 4.66 ± 0.2; under setting [2], 4.62 ± 0.12.
The like results for SNKKRPSLDGRDPGNGTHGLSPEE [ELOA2] were, in that order, 5.36 ± 0.27 and 5.33 ± 0.23.
The like results for KNLFGPPLESAFDHEDFTGSSSLG [FCHO1] were, in that order, 4.22 ± 0.13 and 4.37 ± 0.7.
On the same counts, the results for AIRPENRAPGAGLGQDRQVPLWGQ [EMD] are 3.5 ± 0.21 and 3.45 ± 0.18.
On to ELEGTEELCCVAELDNPMQQKWTK [C2CD2L], for which the protein stability index runs as follows: under setting [1], 4.58 ± 0.45; under setting [2], 4.77 ± 0.28.
On the same counts, the results for RGIAIVSVLVILISIVIFCLETLP [KCNA4] are 2.29 ± 0.17 and 2.26 ± 0.33.
For LLADLKKCGDLECEALINRVSAMR [MIA2], the protein stability index reads like this: under setting [1], 2.53 ± 0.23; under setting [2], 2.55 ± 0.32.
On the same counts, the results for REITGVQAQPGEATSGPPGIQPGQ [PALM] are 5.37 ± 0.26 and 5.23 ± 0.2.
The like results for TQIRTITEEIRDGKVISSREHVQS [KRT36] were, in that order, 4.75 ± 0.088 and 4.86 ± 0.1.
The like results for HSYMGMRGFCAFLGSWLVPFAYLT [POMT2] were, in that order, 2.96 ± 0.86 and 3.04 ± 0.62.
In the case of LAPGPAPTRCLPGHKEEEDGEGAG [ESRRA], the protein stability index runs as follows: under setting [1], 5.45 ± 0.16; under setting [2], 5.48 ± 0.081.
The like results for SRVTAFLDDLSQKLKPLGEAEREF [NLN] were, in that order, 2.84 ± 0.07 and 3.12 ± 0.51.
On the same counts, the results for EVANKDLTERKYKGDSTIRELKAK [SASS6] are 3.27 ± 0.39 and 3.27 ± 0.53.
On the same counts, the results for TSGGSNIIYVASNHFVWRLIPVPM [VPS39] are 2.44 ± 0.36 and 2.51 ± 0.74.
In the case of VCRARPRACSHLIRLMQRCWQGDP [RIPK4], the protein stability index reads like this: under setting [1], 2.21 ± 1.1; under setting [2], 2.86 ± 0.35.
The like results for PLMVKGFRDAAEEGGTAVTGGQTV [SEPHS2] were, in that order, 5.05 ± 0.3 and 5.16 ± 0.13.
The like results for LPPVSTSFTTGGLRIPFPRDCGEE [TNXB] were, in that order, 4.62 ± 0.27 and 4.43 ± 0.18.
The like results for RFIRERDRAVNDYPSLYYPEMYIL [CDC25B] were, in that order, 2.49 ± 0.53 and 1.91 ± 0.29.
Consider SFLKQKEQLEAEAQALRQELERQR [PBXIP1], for which the protein stability index by setting is: under setting [1], 4.43 ± 0.39; under setting [2], 4.52 ± 0.088.
Turning to ERSGCALTDAVAPGNKGRGQRGNT [TCF25], the protein stability index by setting is: under setting [1], 5.22 ± 0.11; under setting [2], 5.23 ± 0.13.
On the same counts, the results for PAWNSKLQYILAQIGFSVGLGNIW [SLC6A17] are 2.83 ± 0.45 and 2.47 ± 0.12.
The like results for SMVVPLLSLHVKSLGASPTVAGIV [MFSD9] were, in that order, 2.95 ± 0.36 and 2.4 ± 0.46.
The like results for TIGFGDYVALQTKGALQKKPLYVA [KCNK9] were, in that order, 2.29 ± 0.19 and 2.63 ± 0.28.
As to DSTGYMEVSLDSLDLRVKGILSSQ [EHMT1], the protein stability index by setting is: under setting [1], 3.08 ± 0.36; under setting [2], 3.17 ± 0.29.
On the same counts, the results for LAFFPFLHRLFREKSLDQLKSISA [PHTF1] are 2.46 ± 0.3 and 2.26 ± 0.35.
The like results for VDKYVNSFVLKNFPALLSTGEFLK [KLHL13] were, in that order, 2.01 ± 0.45 and 2.1 ± 0.6.
The like results for FGCFFYVYYIFERLCAPLFRNIKQ [SOAT1] were, in that order, 2.37 ± 0.2 and 2.69 ± 0.068.
For GSRVISHYAGQDATDPFVAFHINK [FADS1], the protein stability index is 3.33 ± 0.31 under setting [1] and 3.35 ± 0.22 under setting [2].
